One block for each substance: values may come before it.
What was measured:
Assay in all cases: crystal structure; hanging drop; protein in 25 mM HEPES pH 7.5, 150 mM NaCl, 5% glycerol with 5 mM glutamate or 1 mM KA, mixed 1:1 with reservoir (19-27% PEG 4000, 0-9% propan-2-ol, 80 mM sodium acetate); data collected at 100 K; LBD dimer, one (I222) or two (P212121) dimers in the asymmetric unit
[1] = target: GluK2 K531A ligand-binding domain (rat) (UniProt P42260)
[2] = target: GluK2 K531A-T779G ligand-binding domain (rat) (UniProt P42260)
[3] = target: GluK2 R775A ligand-binding domain (rat) (UniProt P42260)

stoichiometry N [1]: 2
Substance: GluK2 K531A ligand-binding domain (from UniProt P42260 32-544; P42260 667-908) (domain or fragment)

stoichiometry N [2]: 2
Substance: GluK2 K531A-T779G ligand-binding domain (from UniProt P42260 32-544; P42260 667-908) (domain or fragment)

stoichiometry N [3]: 2
Substance: GluK2 R775A ligand-binding domain (from UniProt P42260 32-544; P42260 667-908) (domain or fragment)
